Assay [1] addresses unphosphorylated smooth muscle myosin (SMM) filaments stabilized against ATP-induced disassembly (UniProt P10587).
Assay [2] shares this target. This is another data set of the same source.

Drawing on PMC4586593, this text covers Kd for 1 substance.

Read-outs that look alike come from different tables or passages of the source.

As for “smooth muscle MLCK, short isoform, from chicken gizzard, unlabeled (enzyme)”, the Kd in assay [1] is 1500 nM; in assay [2] it was 1300 nM.
